Source: paper PMC3834884, “A fully caninised anti-NGF monoclonal antibody for pain relief in dogs” (BMC Veterinary Research, 2013)

Assays:
[1] = biological target: T1, mouse nerve growth factor (muNGF) (Mus musculus, UniProt P01139); experiment: SPR; ProteOn XPR36, GLM chip; muNGF amine-coupled (50 ug/mL, sodium acetate pH 4.5); NV-01 passed over at 500, 250, 125, 62.5 and 31.25 nM for 60 s; Langmuir fit; conditions: both partners purified
T1 construct: mouse beta nerve growth factor; also called mouse NGF; murine NGF; source: bought: Biosensis (purified mouse NGF)
T1 sequence (P01139 122-241): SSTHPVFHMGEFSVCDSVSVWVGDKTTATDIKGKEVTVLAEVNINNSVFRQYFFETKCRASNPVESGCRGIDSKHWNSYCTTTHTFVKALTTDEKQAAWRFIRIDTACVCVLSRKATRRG

[2] = biological target: T1, mouse nerve growth factor (muNGF); experiment: cell-based or functional assay
[3] = biological target: T1, mouse nerve growth factor (muNGF); experiment: ELISA; plates coated with NGF (0.1 ug/ml muNGF; canine NGF in Figure 2A), blocked with 5% BSA/PBS; CHO cell supernatants with canine anti-NGF IgG 1 h at room temperature in PBS/1% BSA; detected with rabbit anti-canine IgG-HRP; conditions: one partner purified
[4] = biological target: T2, canine nerve growth factor with a C-terminal poly-His tag (Canis lupus familiaris, UniProt A0A8I3PYI3); experiment: as above; conditions: one partner purified
T2 construct: canine beta NGF, expressed from a cDNA that encodes canine pre-pro beta NGF; the mature form is surmised; also called canine NGF; caNGF; source: HEK293 cells, transient transfection, purified from supernatant (Ni-HiTrap); not shown: poly-His, C-terminal, kept

Row | Binder | Kd [1] [pM] | IC50 of inhibition of NGF-induced proliferation of TF-1 cells (1 ng/ml NGF; NV-01 2.5 ng/ml to 0.002 ng/ml); blocked: NGF and its receptor on TF-1 cells [2] [ng/mL] | binding result [3] | binding result [4]
1 | NV-01 (caN2-HCA1-kLC1), fully caninised anti-NGF monoclonal antibody (antibody, V domains shown, caN2 heavy chain variable domain (caninised rat alphaD11 VH, modified framework); caninised alphaD11 light chain variable domain (caN-kLC1); canine kappa light chain constant domain; Canine IgG-A, kappa; also called caninised anti-NGF mAb; copies: 2 + 2) VH: EVQLVESGGGLVQPGGSLRLSCVASGFSLTNNNVNWVRQAPGKGLEWVGGVWAGGATDYNSALKSRFTISRDNAKNTVFLQMHSLRSEDTAVYYCARDGGYSSSTLYAMDAWGQGTSVTVSS VL: DIVMTQSPASLSLSQGETVTITCRASEDIYNALAWYQQKPGQAPKLLIYNTDTLHTGVPSRFSGSGSGTDFSLTISSLEPEDVAVYYCQHYFHYPRTFGQGTKVELK | < 1 | 0.02 |  | 
2 | caN-HCA1 + kLC1, caninised anti-NGF antibody with canine IgG heavy chain isotype A (antibody, V domains shown, caN heavy chain variable domain (first caninised alphaD11 VH); as the light chain variable domain of m1 (caN-kLC1); canine kappa light chain constant domain; Canine IgG-A, kappa; also called caN-HCA + kLC; type A anti-NGF antibody; source: CHO cells, transient transfection, supernatant; purified using Protein L) VH: EVQLVESGGDLVNPGGTLTLSCVVSGFSLTNNNVNWVRQALGRGLEWVGGVWAGGATDYNSALKSRLTITRDTSKSTVFLKMHSLQSEDTATYYCARDGGYSSSTLYAMDAWGQGTLVTVSS VL: DIVMTQSPASLSLSQGETVTITCRASEDIYNALAWYQQKPGQAPKLLIYNTDTLHTGVPSRFSGSGSGTDFSLTISSLEPEDVAVYYCQHYFHYPRTFGQGTKVELK |  |  | binds | 
3 | caN-HCC1 + kLC1, caninised anti-NGF antibody with canine IgG heavy chain isotype C (antibody, V domains shown, caN heavy chain variable domain (first caninised alphaD11 VH); as the light chain variable domain of m1 (caN-kLC1); canine kappa light chain constant domain; Canine IgG-C, kappa; also called caN-HCC-kLC; type C anti-NGF antibody; source: CHO cells, transient transfection, supernatant; purified on Protein G) VH: EVQLVESGGDLVNPGGTLTLSCVVSGFSLTNNNVNWVRQALGRGLEWVGGVWAGGATDYNSALKSRLTITRDTSKSTVFLKMHSLQSEDTATYYCARDGGYSSSTLYAMDAWGQGTLVTVSS VL: DIVMTQSPASLSLSQGETVTITCRASEDIYNALAWYQQKPGQAPKLLIYNTDTLHTGVPSRFSGSGSGTDFSLTISSLEPEDVAVYYCQHYFHYPRTFGQGTKVELK |  |  | binds | 
4 | caN-HCD2 + kLC1, caninised anti-NGF antibody with canine IgG heavy chain isotype D (antibody, V domains shown, caN heavy chain variable domain (first caninised alphaD11 VH); as the light chain variable domain of m1 (caN-kLC1); canine kappa light chain constant domain; Canine IgG-D, kappa; also called caN-HCD + kLC; ca-HCD2 + kLC1; source: CHO cells, transient transfection, supernatant; purified using Protein L) VH: EVQLVESGGDLVNPGGTLTLSCVVSGFSLTNNNVNWVRQALGRGLEWVGGVWAGGATDYNSALKSRLTITRDTSKSTVFLKMHSLQSEDTATYYCARDGGYSSSTLYAMDAWGQGTLVTVSS VL: DIVMTQSPASLSLSQGETVTITCRASEDIYNALAWYQQKPGQAPKLLIYNTDTLHTGVPSRFSGSGSGTDFSLTISSLEPEDVAVYYCQHYFHYPRTFGQGTKVELK |  |  | binds | 
5 | caN-HCB2 + kLC1, caninised anti-NGF antibody with canine IgG heavy chain isotype B (antibody, V domains shown, caN heavy chain variable domain (first caninised alphaD11 VH); as the light chain variable domain of m1 (caN-kLC1); canine kappa light chain constant domain; Canine IgG-B, kappa; also called caN-HCB-kLC; type B anti-NGF antibody; source: CHO cells, transient transfection, supernatant; purified on protein A) VH: EVQLVESGGDLVNPGGTLTLSCVVSGFSLTNNNVNWVRQALGRGLEWVGGVWAGGATDYNSALKSRLTITRDTSKSTVFLKMHSLQSEDTATYYCARDGGYSSSTLYAMDAWGQGTLVTVSS VL: DIVMTQSPASLSLSQGETVTITCRASEDIYNALAWYQQKPGQAPKLLIYNTDTLHTGVPSRFSGSGSGTDFSLTISSLEPEDVAVYYCQHYFHYPRTFGQGTKVELK |  |  | binds | binds
